Assays:
Experiment in all cases: pulldown
Conditions in all cases: sense/antisense normalized AUC more than 2-fold
[1] = target: FLG2 (Filaggrin-2) (Homo sapiens) (UniProt Q5D862)
[2] = target: T1, SFPQ (splicing factor, proline- and glutamine-rich) (Homo sapiens) (UniProt P23246)
T1 sequence: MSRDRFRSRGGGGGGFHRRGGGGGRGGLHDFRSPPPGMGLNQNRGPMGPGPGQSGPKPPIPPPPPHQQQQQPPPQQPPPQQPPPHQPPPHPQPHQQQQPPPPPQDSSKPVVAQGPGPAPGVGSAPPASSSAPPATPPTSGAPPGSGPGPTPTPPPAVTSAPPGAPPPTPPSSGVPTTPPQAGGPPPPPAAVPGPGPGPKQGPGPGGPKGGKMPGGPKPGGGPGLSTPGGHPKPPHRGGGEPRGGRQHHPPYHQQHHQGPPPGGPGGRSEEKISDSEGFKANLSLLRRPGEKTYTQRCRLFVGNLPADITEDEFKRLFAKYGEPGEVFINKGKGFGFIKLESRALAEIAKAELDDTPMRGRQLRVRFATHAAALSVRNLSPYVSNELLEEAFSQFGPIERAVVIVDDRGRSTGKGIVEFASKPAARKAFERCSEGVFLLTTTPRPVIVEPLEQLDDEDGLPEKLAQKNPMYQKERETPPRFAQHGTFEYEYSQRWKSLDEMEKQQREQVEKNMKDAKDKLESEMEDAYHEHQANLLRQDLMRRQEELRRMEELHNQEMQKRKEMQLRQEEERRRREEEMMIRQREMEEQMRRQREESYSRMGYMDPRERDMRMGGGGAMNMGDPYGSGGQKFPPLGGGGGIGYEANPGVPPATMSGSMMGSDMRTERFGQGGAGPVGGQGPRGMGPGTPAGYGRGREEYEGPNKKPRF

[3] = target: ACLY (ATP-citrate synthase) (Homo sapiens) (UniProt P53396)
ACLY (ATP-citrate synthase) (Homo sapiens), sequence (P53396 whole entry): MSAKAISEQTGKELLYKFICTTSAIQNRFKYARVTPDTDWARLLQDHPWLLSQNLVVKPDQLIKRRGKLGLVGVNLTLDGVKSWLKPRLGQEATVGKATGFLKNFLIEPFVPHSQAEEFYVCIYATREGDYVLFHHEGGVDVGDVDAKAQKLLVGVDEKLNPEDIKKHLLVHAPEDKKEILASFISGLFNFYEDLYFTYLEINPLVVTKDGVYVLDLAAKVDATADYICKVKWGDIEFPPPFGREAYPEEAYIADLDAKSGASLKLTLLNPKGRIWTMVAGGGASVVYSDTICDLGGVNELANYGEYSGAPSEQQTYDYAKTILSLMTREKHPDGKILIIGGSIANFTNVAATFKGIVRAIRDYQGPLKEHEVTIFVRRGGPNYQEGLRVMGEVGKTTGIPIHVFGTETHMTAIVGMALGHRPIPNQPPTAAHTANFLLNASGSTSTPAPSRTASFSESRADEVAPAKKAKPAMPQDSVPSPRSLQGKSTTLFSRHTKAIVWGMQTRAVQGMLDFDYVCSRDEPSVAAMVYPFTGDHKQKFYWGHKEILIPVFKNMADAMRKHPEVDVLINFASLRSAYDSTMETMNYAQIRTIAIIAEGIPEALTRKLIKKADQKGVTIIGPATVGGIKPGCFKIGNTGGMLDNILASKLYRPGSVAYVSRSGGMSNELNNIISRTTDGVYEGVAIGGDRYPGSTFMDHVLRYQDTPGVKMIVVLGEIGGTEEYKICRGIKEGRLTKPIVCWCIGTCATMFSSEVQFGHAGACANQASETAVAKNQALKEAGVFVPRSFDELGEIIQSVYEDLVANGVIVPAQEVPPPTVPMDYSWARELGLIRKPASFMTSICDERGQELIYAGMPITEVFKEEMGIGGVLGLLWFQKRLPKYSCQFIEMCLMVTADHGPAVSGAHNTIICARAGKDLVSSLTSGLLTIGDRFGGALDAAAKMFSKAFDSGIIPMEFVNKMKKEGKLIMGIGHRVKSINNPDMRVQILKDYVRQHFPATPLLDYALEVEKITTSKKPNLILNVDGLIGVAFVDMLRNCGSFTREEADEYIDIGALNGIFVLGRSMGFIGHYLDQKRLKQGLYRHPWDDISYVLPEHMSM

Measured: binding signal (fraction of sense)

FLG2 (Filaggrin-2) (Homo sapiens), sequence (Q5D862 whole entry): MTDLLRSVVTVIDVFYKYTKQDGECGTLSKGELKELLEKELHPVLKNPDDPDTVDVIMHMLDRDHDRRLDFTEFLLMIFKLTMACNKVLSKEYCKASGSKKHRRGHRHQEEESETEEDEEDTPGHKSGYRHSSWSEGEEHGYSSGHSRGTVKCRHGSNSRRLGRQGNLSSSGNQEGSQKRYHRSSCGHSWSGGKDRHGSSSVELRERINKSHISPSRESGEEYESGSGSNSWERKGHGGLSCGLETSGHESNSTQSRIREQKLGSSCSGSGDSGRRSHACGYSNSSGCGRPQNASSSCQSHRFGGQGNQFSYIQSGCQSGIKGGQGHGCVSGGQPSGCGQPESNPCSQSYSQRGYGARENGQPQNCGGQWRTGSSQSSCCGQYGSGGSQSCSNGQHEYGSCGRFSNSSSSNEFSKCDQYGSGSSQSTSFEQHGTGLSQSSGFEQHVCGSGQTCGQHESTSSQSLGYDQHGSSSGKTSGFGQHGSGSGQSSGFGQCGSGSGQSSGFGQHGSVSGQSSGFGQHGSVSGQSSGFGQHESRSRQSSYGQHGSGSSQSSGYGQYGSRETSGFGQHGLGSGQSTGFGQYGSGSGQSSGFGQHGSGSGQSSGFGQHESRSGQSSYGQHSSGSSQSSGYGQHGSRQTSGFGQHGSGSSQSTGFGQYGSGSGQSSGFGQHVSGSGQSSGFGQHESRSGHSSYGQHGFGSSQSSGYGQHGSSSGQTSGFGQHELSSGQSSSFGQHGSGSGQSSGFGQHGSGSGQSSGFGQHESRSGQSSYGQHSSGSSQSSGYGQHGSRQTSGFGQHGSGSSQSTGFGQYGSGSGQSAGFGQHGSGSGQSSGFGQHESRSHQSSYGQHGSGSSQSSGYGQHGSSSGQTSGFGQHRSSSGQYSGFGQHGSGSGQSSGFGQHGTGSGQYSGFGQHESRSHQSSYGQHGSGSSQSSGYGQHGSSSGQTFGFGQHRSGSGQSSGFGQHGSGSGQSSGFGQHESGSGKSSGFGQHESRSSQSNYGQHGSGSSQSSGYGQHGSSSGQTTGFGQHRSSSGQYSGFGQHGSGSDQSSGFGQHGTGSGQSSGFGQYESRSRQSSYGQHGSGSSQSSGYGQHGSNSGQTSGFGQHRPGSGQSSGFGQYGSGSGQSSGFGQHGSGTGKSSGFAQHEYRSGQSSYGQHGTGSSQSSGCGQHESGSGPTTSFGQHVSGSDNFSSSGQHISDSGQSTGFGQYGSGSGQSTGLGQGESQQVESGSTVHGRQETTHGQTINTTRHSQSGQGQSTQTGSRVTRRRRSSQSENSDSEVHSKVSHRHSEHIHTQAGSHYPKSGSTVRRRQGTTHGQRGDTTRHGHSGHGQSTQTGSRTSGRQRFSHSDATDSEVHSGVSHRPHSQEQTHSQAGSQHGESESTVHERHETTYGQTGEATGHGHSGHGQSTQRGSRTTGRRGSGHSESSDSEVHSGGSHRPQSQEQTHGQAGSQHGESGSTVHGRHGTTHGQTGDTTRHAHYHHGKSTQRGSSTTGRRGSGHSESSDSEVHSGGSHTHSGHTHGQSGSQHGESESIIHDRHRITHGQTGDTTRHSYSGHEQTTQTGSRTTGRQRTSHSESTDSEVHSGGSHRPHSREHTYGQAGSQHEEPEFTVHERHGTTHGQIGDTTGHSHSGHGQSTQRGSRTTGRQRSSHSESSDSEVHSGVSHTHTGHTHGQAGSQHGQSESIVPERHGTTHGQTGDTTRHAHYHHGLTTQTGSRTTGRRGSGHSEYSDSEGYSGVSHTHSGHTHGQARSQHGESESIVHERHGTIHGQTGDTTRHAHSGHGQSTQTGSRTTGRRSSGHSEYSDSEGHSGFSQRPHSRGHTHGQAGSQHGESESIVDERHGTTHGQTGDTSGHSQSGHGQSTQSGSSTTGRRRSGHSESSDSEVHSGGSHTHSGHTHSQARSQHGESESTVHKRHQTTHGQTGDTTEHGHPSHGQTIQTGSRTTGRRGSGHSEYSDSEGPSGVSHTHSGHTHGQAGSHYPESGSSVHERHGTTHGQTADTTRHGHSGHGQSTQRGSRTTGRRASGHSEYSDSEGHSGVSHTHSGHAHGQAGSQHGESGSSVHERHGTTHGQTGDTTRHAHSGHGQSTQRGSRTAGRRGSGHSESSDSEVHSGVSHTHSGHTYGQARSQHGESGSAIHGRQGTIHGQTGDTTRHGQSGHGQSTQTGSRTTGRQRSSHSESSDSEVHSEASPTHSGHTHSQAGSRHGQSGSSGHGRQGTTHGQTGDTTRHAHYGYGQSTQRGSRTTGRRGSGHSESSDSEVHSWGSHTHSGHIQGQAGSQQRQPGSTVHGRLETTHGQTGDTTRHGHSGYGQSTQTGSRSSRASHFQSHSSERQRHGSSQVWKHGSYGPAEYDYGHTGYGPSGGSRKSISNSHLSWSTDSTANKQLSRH

lnc-FAM164A1 antisense RNA
< 0.5: all assays above

— patent publication US20200237800
